Results from the supplement of paper PMC11811203.

B1: THAP1; numbered along this chain (parent)
chain: MVQSCSAYGCKNRYDKDKPVSFHKFPLTRPSLCKEWEAAVRRKNFKPTKYSSICSEHFTPDCFKRECNNKLLKENAVPTIFLCTEPHDKKEDLLEPQEQLPPPPLPPPVSQVDAAIGLLMPPLQTPVNLSVFCDHNYTVEDTMHQRKRIHQLEQQVEKLRKKLKTAQQRCRRQERQLEKLKEVVHFQKEKDDVSERGYVILPNDYFEIVEVPA

Variants of: B1
Assay: THAP1 transcriptional activity (GFP+/GFP- enrichment relative to wild-type constructs) (ratio to WT); higher = more THAP1 activity (PSMB5 reporter activation)
Conditions: with PSMB5 promoter-GFP reporter
Summary of the method: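 A site-saturation library of human THAP1 (residues 2–213, each changed to all 20 amino acids) was transduced by lentivirus at MOI ~0.3, in duplicate, into THAP1-knockout HEK-293T cells carrying mClover3 knocked in at endogenous PSMB5. After five days, BFP+ cells were sorted into GFP-dim and GFP-bright bins, and variants were counted by Illumina sequencing of genomic DNA amplicons. Activity is the replicate-mean bright/dim read fold change divided by the mean of wild-type synonymous constructs.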

THAP1 transcriptional activity, by site and new letter:
L163: G 0.179 | N 0.134 | Q 0.17 | S 0.142 | T 0.195 | H 0.178 | V 0.545 | E 0.196 | C 0.422 | I 0.488 | D 0.0892 | F 0.23 | P 0.149 | W 0.188 | A 0.118 | K 0.168 | R 0.163
R169: V 0.347 | H 0.531 | W 0.138 | G 0.181 | Q 0.379 | Y 0.183 | P 0.132 | M 0.388 | A 0.297 | D 0.239 | C 0.292 | S 0.262 | L 0.45 | F 0.246
K162: H 0.273 | I 0.164 | T 0.273 | Q 0.612 | S 0.461 | M 0.318 | F 0.177 | E 0.269 | N 0.185 | P 0.15 | W 0.206 | G 0.11 | Y 0.188 | C 0.329 | A 0.4 | V 0.232 | L 0.417 | D 0.27
R160: P 0.171 | G 0.224 | H 0.433 | D 0.216 | K 0.689 | F 0.252 | V 0.339 | M 0.278 | Y 0.263 | Q 0.492 | A 0.391 | I 0.228 | W 0.309 | L 0.205 | C 0.269
Q173: A 0.888 | D 0.232 | V 1.27 | S 0.592 | H 0.693 | E 0.149 | G 0.386 | F 0.425 | L 0.611 | W 0.284 | R 0.58 | T 1.1
E174: V 0.568 | R 1.48 | P 0.189 | T 0.836 | G 0.535 | C 1.18 | H 0.817 | K 0.794 | L 1.03 | F 0.564 | S 0.847 | Q 1.26 | D 0.712
E178: K 1.59 | A 0.976 | H 0.957 | F 0.529 | G 0.795 | D 0.665 | I 0.832 | C 0.927
E157: Q 0.766 | G 0.865 | Y 0.488 | D 0.766 | R 0.765 | V 0.835 | S 1.39 | L 0.434 | I 1.2 | C 0.685 | P 0.228 | M 1.03 | N 0.914 | W 0.741
A166: P 0.211 | C 1.14 | W 0.485 | V 0.718 | D 0.217 | M 0.882 | H 0.35 | E 0.448 | N 0.382 | T 0.965 | Y 0.705 | L 0.89 | G 0.258 | R 0.328
R175: W 0.507 | L 0.692 | T 0.382 | C 0.503 | I 0.699 | Y 0.619 | F 0.33 | Q 0.653 | H 0.492 | G 0.388 | N 0.379 | K 1.17 | A 0.506 | E 0.554 | D 0.345 | P 0.102
T165: L 0.668 | P 0.196 | N 1.38 | C 1.22 | H 0.785 | I 0.755 | Q 0.517 | D 0.416 | F 0.262 | S 1.6 | Y 0.379 | R 0.898 | W 0.39 | K 0.633 | V 0.976 | E 0.6
K158: W 0.457 | V 0.617 | M 0.607 | G 0.542 | D 0.831 | L 0.386 | F 0.365 | R 0.941 | N 0.391 | H 0.822 | I 0.55 | P 0.175 | Q 0.708 | Y 0.666 | E 0.562
Q167: N 0.559 | H 0.575 | L 0.245 | S 0.649 | E 0.37 | R 0.415 | D 0.239 | V 0.351 | W 0.235 | M 0.699 | T 0.585 | P 0.13 | A 0.311 | G 0.21 | K 0.613 | F 0.28
C170: Y 0.702 | P 0.15 | T 0.457 | N 0.728 | W 0.208 | G 0.353 | H 0.411 | R 0.609 | K 0.26 | L 0.894 | Q 0.604 | A 0.663 | M 0.824 | D 0.173 | S 0.425 | E 0.194 | F 0.35
Q168: W 0.157 | P 0.186 | L 0.433 | R 0.446 | Y 0.173 | T 0.711 | F 0.256 | N 0.781 | C 0.512 | S 0.477 | H 0.394 | D 0.417 | E 0.498 | V 0.249 | G 0.391 | K 0.394
L159: M 0.541 | Q 0.261 | E 0.147 | H 0.228 | C 0.151 | P 0.158 | F 0.337 | D 0.213 | G 0.147 | R 0.193 | T 0.209 | W 0.164 | V 0.327 | Y 0.707 | A 0.245 | N 0.294
L177: S 0.206 | P 0.192 | Q 0.191 | D 0.233 | A 0.268 | C 0.369 | H 0.327 | V 0.404 | N 0.361 | I 0.925 | Y 0.528 | F 0.408 | W 0.263 | R 0.3 | T 0.255 | K 0.328
R171: N 0.229 | T 0.172 | G 0.285 | V 0.142 | W 0.258 | D 0.228 | H 0.344 | C 0.256 | K 0.627 | I 0.359 | S 0.173 | E 0.218 | L 0.314 | M 0.36 | P 0.186
R172: Q 0.364 | P 0.241 | I 0.34 | S 0.428 | L 0.328 | E 0.34 | W 0.267 | Y 0.252 | D 0.201 | A 0.396 | N 0.41 | G 0.234 | C 0.157 | F 0.247 | V 0.288 | H 0.458 | K 0.684
Q176: D 0.41 | K 1.54 | P 0.259 | C 0.538 | N 0.518 | L 0.707 | W 0.223 | A 0.567 | R 1.1 | G 0.189 | S 0.434 | H 0.546 | I 0.557 | V 0.499
K161: T 0.505 | H 0.451 | P 0.172 | A 0.3 | N 0.475 | V 0.461 | Y 0.195 | E 0.167 | R 0.649 | W 0.242 | S 0.639 | L 0.441 | C 0.37 | F 0.232 | D 0.188 | G 0.289 | I 0.452 | M 0.518
K164: P 0.28 | R 1.17 | F 0.167 | L 0.298 | E 0.343 | I 0.252 | Y 0.307 | W 0.146 | N 0.306 | G 0.106 | D 0.173 | H 0.316 | V 0.218 | Q 0.304 | A 0.337 | S 0.326 | M 0.258
